The values that follow come from US11994512B2, “Single-cell genomic methods to generate ex vivo cell systems that recapitulate in vivo biology with improved fidelity” (Massachusetts Institute of Technology, priority 2018, dated 2024).

For the experiment, the system named is intracellular proteome of ENR+CD and ENR organoids. Kind of experiment: LC-MS/MS TMT proteomics of ENR+CD versus ENR organoids. Type of experiment: cell-based, C57BL/6 mice. Conditions: for Average logFC / M1-1 Log2 Median Normalized / M1-2 Log2 Median Normalized / M2-1 Log2 Median Normalized / M2-2 Log2 Median Normalized: protein abundance, ENR+CD versus ENR organoids; for Average logFC: aggregate of the four sample pairs; for M1-1 Log2 Median Normalized: replicate M1-1; for M1-1 Log2 Median Normalized / M1-2 Log2 Median Normalized / M2-1 Log2 Median Normalized / M2-2 Log2 Median Normalized: log2 ratio; for M1-2 Log2 Median Normalized: replicate M1-2; for M2-1 Log2 Median Normalized: replicate M2-1; for M2-2 Log2 Median Normalized: replicate M2-2; for change: up = enriched in ENR+CD, down = enriched in ENR, FDR<0.05 and log fold change cut-off.

B1: P11725 (protein, UniProt P11725 1-354, looked up)
chain: MLSNLRILLNNAALRKGHTSVVRHFWCGKPVQSQVQLKGRDLLTLKNFTGEEIQYMLWLSADLKFRIKQKGEYLPLLQGKSLGMIFEKRSTRTRLSTETGFALLGGHPSFLTTQDIHLGVNESLTDTARVLSSMTDAVLARVYKQSDLDTLAKEASIPIVNGLSDLYHPIQILADYLTLQEHYGSLKGLTLSWIGDGNNILHSIMMSAAKFGMHLQAATPKGYEPDPNIVKLAEQYAKENGTKLSMTNDPLEAARGGNVLITDTWISMGQEDEKKKRLQAFQGYQVTMKTAKVAASDWTFLHCLPRKPEEVDDEVFYSPRSLVFPEAENRKWTIMAVMVSLLTDYSPVLQKPKF
modifications: full-length
Regarding B1, the “Average logFC” value is −1.477, the “M1-1 Log2 Median Normalized” value was −1.478, the “M1-2 Log2 Median Normalized” value was −1.458 and the “M2-1 Log2 Median Normalized” value is given as −2.2695. Further, the “M2-2 Log2 Median Normalized” value was −1.132 and the change entry was “down”.

B2: P18242 (protein, UniProt P18242 1-410, looked up)
chain: MKTPGVLLLILGLLASSSFAIIRIPLRKFTSIRRTMTEVGGSVEDLILKGPITKYSMQSSPKTTEPVSELLKNYLDAQYYGDIGIGTPPQCFTVVFDTGSSNLWVPSIHCKILDIACWVHHKYNSDKSSTYVKNGTSFDIHYGSGSLSGYLSQDTVSVPCKSDQSKARGIKVEKQIFGEATKQPGIVFVAAKFDGILGMGYPHISVNNVLPVFDNLMQQKLVDKNIFSFYLNRDPEGQPGGELMLGGTDSKYYHGELSYLNVTRKAYWQVHMDQLEVGNELTLCKGGCEAIVDTGTSLLVGPVEEVKELQKAIGAVPLIQGEYMIPCEKVSSLPTVYLKLGGKNYELHPDKYILKVSQGGKTICLSGFMGMDIPPPSGPLWILGDVFIGSYYTVFDRDNNRVGFANAVVL
modifications: full-length
In the case of B2, the “Average logFC” value worked out at 1.296, the “M1-1 Log2 Median Normalized” value was 1.508, the “M1-2 Log2 Median Normalized” value was determined as 1.211 and the “M2-1 Log2 Median Normalized” value is 0.9875. Besides, the “M2-2 Log2 Median Normalized” value is given as 1.479 and the change entry is “up”.

B3: P19246 (protein, UniProt P19246 1-1090, looked up)
chain: MMSFGSADALLGAPFAPLHGGGSLHYSLSRKAGPGGTRSAAGSSSGFHSWARTSVSSVSASPSRFRGAASSTDSLDTLSNGPEGCVVAAVAARSEKEQLQALNDRFAGYIDKVRQLEAHNRSLEGEAAALRQQQAGRAAMGELYEREVREMRGAVLRLGAARGQLRLEQEHLLEDIAHVRQRLDEEARQREEAEAAARALARFAQEAEAARVELQKKAQALQEECGYLRRHHQEEVGELLGQIQGCGAAQAQAQAEARDALKCDVTSALREIRAQLEGHAVQSTLQSEEWFRVRLDRLSEAAKVNTDAMRSAQEEITEYRRQLQARTTELEALKSTKESLERQRSELEDRHQADIASYQDAIQQLDSELRNTKWEMAAQLREYQDLLNVKMALDIEIAAYRKLLEGEECRIGFGPSPFSLTEGLPKIPSISTHIKVKSEEMIKVVEKSEKETVIVEGQTEEIRVTEGVTEEEDKEAQGQEGEEAEEGEEKEEEEGAAATSPPAEEAASPEKETKSRVKEEAKSPGEAKSPGEAKSPAEAKSPGEAKSPGEAKSPGEAKSPAEPKSPAEPKSPAEAKSPAEPKSPATVKSPGEAKSPSEAKSPAEAKSPAEAKSPAEAKSPAEAKSPAEAKSPAEAKSPATVKSPGEAKSPSEAKSPAEAKSPAEAKSPAEAKSPAEVKSPGEAKSPAEPKSPAEAKSPAEVKSPAEAKSPAEVKSPGEAKSPAAVKSPAEAKSPAAVKSPGEAKSPGEAKSPAEAKSPAEAKSPIEVKSPEKAKTPVKEGAKSPAEAKSPEKAKSPVKEDIKPPAEAKSPEKAKSPVKEGAKPPEKAKPLDVKSPEAQTPVQEEAKHPTDIRPPEQVKSPAKEKAKSPEKEEAKTSEKVAPKKEEVKSPVKEEVKAKEPPKKVEEEKTLPTPKTEAKESKKDEAPKEAPKPKVEEKKETPTEKPKDSTAEAKKEEAGEKKKAVASEEETPAKLGVKEEAKPKEKTETTKTEAEDTKAKEPSKPTETEKPKKEEMPAAPEKKDTKEEKTTESRKPEEKPKMEAKVKEDDKSLSKEPSKPKTEKAEKSSSTDQKESQPPEKTTEDKATKGEK
modifications: full-length
For B3, the “Average logFC” value is listed as 1.284, the “M1-1 Log2 Median Normalized” value is 1.432, the “M1-2 Log2 Median Normalized” value was determined as 1.357 and the “M2-1 Log2 Median Normalized” value came out at 1.1695. In addition, the “M2-2 Log2 Median Normalized” value is recorded as 1.176 and the change result is recorded as “up”.
